Measurements reported in patent publication US20040087777A1.

How the values were obtained:
Assay in all cases: rNET
[1] = biological target: … analog, Residue 4 = D
[2] = biological target: … analog, Residue 4 = C
[3] = biological target: … analog, Residue 6 = N
[4] = biological target: … analog, Residue 6 = C
[5] = biological target: … analog, Residue 7 = P
[6] = biological target: … analog, Residue 4 = W
[7] = biological target: … analog, Residue 5 = C
[8] = biological target: … analog, Residue 6 = A
[9] = biological target: … analog, Residue 4 = T
[10] = biological target: … analog, Residue 6 = V
[11] = biological target: … analog, Residue 4 = I
[12] = biological target: … analog, Residue 5 = Y
[13] = biological target: … analog, Residue 5 = T
[14] = biological target: … analog, Residue 6 = E
[15] = biological target: … analog, Residue 4 = A
[16] = biological target: … analog, Residue 5 = W
[17] = biological target: … analog, Residue 5 = E
[18] = biological target: … analog, Residue 7 = I
[19] = biological target: … analog, Residue 7 = G
[20] = biological target: … analog, Residue 6 = Y
[21] = biological target: … analog, Residue 6 = K
[22] = biological target: … analog, Residue 4 = P
[23] = biological target: … analog, Residue 4 = K
[24] = biological target: … analog, Residue 6 = P
[25] = biological target: … analog, Residue 6 = Q
[26] = biological target: … analog, Residue 5 = D
[27] = biological target: … analog, Residue 5 = M
[28] = biological target: … analog, Residue 4 = Y
[29] = biological target: … analog, Residue 4 = L
[30] = biological target: … analog, Residue 7 = A
[31] = biological target: … analog, Residue 4 = R
[32] = biological target: … analog, Residue 7 = W
[33] = biological target: … analog, Residue 5 = S
[34] = biological target: … analog, Residue 5 = V
[35] = biological target: … analog, Residue 5 = I
[36] = biological target: … analog, Residue 5 = A
[37] = biological target: … analog, Residue 5 = P
[38] = biological target: … analog, Residue 7 = C
[39] = biological target: … analog, Residue 6 = L
[40] = biological target: … analog, Residue 7 = Q
[41] = biological target: … analog, Residue 7 = V
[42] = biological target: … analog, Residue 7 = K
[43] = biological target: … analog, Residue 6 = I
[44] = biological target: … analog, Residue 6 = W
[45] = biological target: … analog, Residue 7 = S
[46] = biological target: … analog, Residue 6 = F
[47] = biological target: … analog, Residue 7 = M
[48] = biological target: … analog, Residue 7 = F
[49] = biological target: … analog, Residue 4 = N
[50] = biological target: … analog, Residue 4 = M
[51] = biological target: … analog, Residue 4 = G
[52] = biological target: … analog, Residue 5 = F
[53] = biological target: … analog, Residue 4 = S
[54] = biological target: … analog, Residue 7 = Y
[55] = biological target: … analog, Residue 6 = D
[56] = biological target: … analog, Residue 7 = L
[57] = biological target: … analog, Residue 4 = E
[58] = biological target: … analog, Residue 7 = T
[59] = biological target: … analog, Residue 5 = L
[60] = biological target: … analog, Residue 4 = V
[61] = biological target: … analog, Residue 6 = R
[62] = biological target: … analog, Residue 5 = N
[63] = biological target: … analog, Residue 7 = R
[64] = biological target: … analog, Residue 6 = G
[65] = biological target: … analog, Residue 4 = Q
[66] = biological target: … analog, Residue 6 = M
[67] = biological target: … analog, Residue 5 = Q

OD [1]: 0.017 OD
OD [2]: 0.02 OD
OD [3]: 0.58 OD
OD [4]: 0.585 OD
OD [5]: 0.582 OD
OD [6]: 0.291 OD
OD [7]: 0.359 OD
OD [8]: 0.587 OD
OD [9]: 0.016 OD
OD [10]: 0.588 OD
OD [11]: 0.119 OD
OD [12]: 0.278 OD
OD [13]: 0.53 OD
OD [14]: 0.579 OD
OD [15]: 0.016 OD
OD [16]: 0.393 OD
OD [17]: 0.115 OD
OD [18]: 0.552 OD
OD [19]: 0.562 OD
OD [20]: 0.595 OD
OD [21]: 0.585 OD
OD [22]: 0.03 OD
OD [23]: 0.015 OD
OD [24]: 0.587 OD
OD [25]: 0.57 OD
OD [26]: 0.08 OD
OD [27]: 0.418 OD
OD [28]: 0.529 OD
OD [29]: 0.559 OD
OD [30]: 0.58 OD
OD [31]: 0.016 OD
OD [32]: 0.547 OD
OD [33]: 0.487 OD
OD [34]: 0.493 OD
OD [35]: 0.51 OD
OD [36]: 0.275 OD
OD [37]: 0.093 OD
OD [38]: 0.559 OD
OD [39]: 0.584 OD
OD [40]: 0.563 OD
OD [41]: 0.563 OD
OD [42]: 0.565 OD
OD [43]: 0.602 OD
OD [44]: 0.576 OD
OD [45]: 0.563 OD
OD [46]: 0.586 OD
OD [47]: 0.562 OD
OD [48]: 0.546 OD
OD [49]: 0.085 OD
OD [50]: 0.549 OD
OD [51]: 0.016 OD
OD [52]: 0.439 OD
OD [53]: 0.026 OD
OD [54]: 0.56 OD
OD [55]: 0.584 OD
OD [56]: 0.566 OD
OD [57]: 0.016 OD
OD [58]: 0.56 OD
OD [59]: 0.517 OD
OD [60]: 0.213 OD
OD [61]: 0.576 OD
OD [62]: 0.476 OD
OD [63]: 0.551 OD
OD [64]: 0.592 OD
OD [65]: 0.065 OD
OD [66]: 0.583 OD
OD [67]: 0.388 OD
B1: murine monoclonal antibody 3D6 (antibody, mouse IgG2b, V domains shown)
VL: not shown
VH: EVKLVESGGGLVKPGASLKLSCAASGFTFSNYGMSWVRQNSDKRLEWVASIRSGGGRTYYSDNVKGRFTISRENAKNTLYLQMSSLKSEDTALYYCVRYDHYSGSSDYWGQGTTVTVSS
